Results: patent US20100183614A1

What was measured:
Assay in all cases: cell-based or functional assay
[1] = biological target: gp120 of clade A HIV strains
[2] = biological target: Efb (S. aureus virulence factor) (Staphylococcus aureus) (UniProt A6QG59)
amyloid β peptide Aβ1-40 = amyloid β peptide Aβ1-40 (UniProt P05067)

Chain of Efb (S. aureus virulence factor) (Staphylococcus aureus) (A6QG59 30-165 limits assumed): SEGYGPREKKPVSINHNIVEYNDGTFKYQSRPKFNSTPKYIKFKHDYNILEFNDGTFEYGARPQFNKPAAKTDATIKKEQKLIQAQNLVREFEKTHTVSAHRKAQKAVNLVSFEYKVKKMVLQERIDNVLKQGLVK

Row | Binder | HIV neutralization IC50 [1] | % Bt-Efb cleavage [2] | 125I-Aβ1-40 hydrolyzing activity, specific activity, preparation AEQ (fmol/h/mg protein) (amyloid β peptide Aβ1-40) | 125I-Aβ1-40 hydrolyzing activity, specific activity, preparation MA1 (fmol/h/mg protein) (amyloid β peptide Aβ1-40) | 125I-Aβ1-40 hydrolyzing activity, specific activity, preparation MA2 (fmol/h/mg protein) (amyloid β peptide Aβ1-40) | 125I-Aβ40 hydrolysis, activity in the absence of a competitor peptide (amyloid β peptide Aβ1-40) | Km (amyloid β peptide Aβ1-40) | kcat (amyloid β peptide Aβ1-40) | kcat/Km (amyloid β peptide Aβ1-40)
1 | scFv JL427 (scFv) scFv: QSVLTQPPSVSGAPGQRVTISCSGSSSNFGLNYVYWYQHFPGTAPKLLIYRNDQRPLGVPARFSGSKSGTSASLAISGLRSEDEADYYCQSYDNSLSGWVFGGGTQLTVLGSSGGGGSGGGGSGGSALQVQLQQSGGGLVQPGRSLRLSCAASGFTFSSYGMHWVRQAPGKGLEWVSYIGRSGSHTNYADSVKGRFTISRDNSKNTLYLQINSLRAEDTAVYYCARGLPNYGMDIWGQGTTVTVSSGSASAPTLFPAAAHHHHHHGAAEQKLISEEDLNGAA | 0.2 µg/mL |  |  |  |  |  |  |  | 
2 | IgVL2-t 2E6 (protein) QSALTQPASVSGSPGQSITISCTGTSSDVGGYNYVSWYQQHPGKAPKLMISEVSNRPSGVSNRFSGSKSGNTASLTISGPQTEDEADYYCSSYTSSSTPVVFGGGTQLTVLGSSGGGGSGGGGSGGSALDIQLTQSPSSLPASVGDRVTITCRASQSISSYLNWYQQKPGKAPKLLIYAASSLQSGVPSRFSGSGSGTDFTLTISSLQPEDFATYYCQQSYSTHTFGQGTKLEIKRAAAHHHHHHGAAEQKLISEEDLNGAA |  | > 20% | 1160 | 380 | 368 | 2590 cpm/hour | 80 µM | 0.005 s⁻¹ | 61.7 M⁻¹ s⁻¹
